{"source": "the supplement of paper PMC10567573", "proteins": {"B1": {"name": "EPB41L3 WT (peptide)", "chain": "GSKFRYSGRTQAQTRRASALIDRP"}, "B2": {"name": "ZNF649 WT (peptide)", "chain": "LTEHKRIHTGKKPHVCSLCGKAFY"}, "B3": {"name": "ZBED3 WT (peptide)", "chain": "QARLRDVSRREGALGWAPAAPPPL"}, "B4": {"name": "ZNF649 WT (peptide)", "chain": "DECEKAYFYMSCLVKHKRIHSREK"}, "B5": {"name": "ZNF649 WT (peptide)", "chain": "EHERAHRGEKPHGCSLCGKAFYKR"}, "B6": {"name": "MYBL2 WT (peptide)", "chain": "FPNRTDQQCQYRWLRVLNPDLVKG"}, "B7": {"name": "EPB41L3 WT (peptide)", "chain": "KKFLTLGSKFRYSGRTQAQTRRAS"}, "B8": {"name": "MYBL2 WT (peptide)", "chain": "FSPSQFLNFWNKQDTLELESPSLT"}, "B9": {"name": "CDC25B WT (peptide)", "chain": "ELKTFRLKTRSWAGERSRRELCSR"}, "B10": {"name": "MYBL2 WT (peptide)", "chain": "VKKSCWTEEEDRIICEAHKVLGNR"}, "B11": {"name": "KCNG1 WT (peptide)", "chain": "LFVTVTAVNLSVSTLPSLREEEEQ"}, "B12": {"name": "SPSB4 WT (peptide)", "chain": "LDMDEGTLSFIVDGQYLGVAFRGL"}, "B13": {"name": "EPB41L3 WT (peptide)", "chain": "FRFAPNHTKELEDKVIELHKSHRG"}, "B14": {"name": "CHCHD6 WT (peptide)", "chain": "MYKLSSEQFHEAASKMESTIKPRR"}, "B15": {"name": "ZNF649 WT (peptide)", "chain": "YQAGKPDALTKLEQGEPLWTLEDE"}, "B16": {"name": "ZNF649 WT (peptide)", "chain": "YHTGKTPFVCPECGQPCSQKSGLI"}, "B17": {"name": "TRIM14 WT (peptide)", "chain": "REQADSCREQLDIMNDLSNRVWSI"}, "B18": {"name": "EPB41L3 WT (peptide)", "chain": "SDYISEFRFAPNHTKELEDKVIEL"}, "B19": {"name": "ZNF649 WT (peptide)", "chain": "MTKAQESLTLEDVAVDFTWEEWQF"}, "B20": {"name": "MYBL2 WT (peptide)", "chain": "IAKHLKGRLGKQCRERWHNHLNPE"}, "B21": {"name": "ZBED3 WT (peptide)", "chain": "GPGFHAGTSALWRHLRSAHRRELE"}, "B22": {"name": "CDC25B WT (peptide)", "chain": "KSPIAPCSLDKRVILIFHCEFSSE"}, "B23": {"name": "EPB41L3 WT (peptide)", "chain": "SELGDYDPDECGSDYISEFRFAPN"}, "B24": {"name": "EPB41L3 WT (peptide)", "chain": "SMQCKVILLDGSEYTCDVEKRSRG"}, "B25": {"name": "ZNF649 WT (peptide)", "chain": "LVAHQRYHTGKTPFVCPECGQPCS"}, "B26": {"name": "TRIM14 WT (peptide)", "chain": "YARTPTLDPDTMHARLRLSADRLT"}, "B27": {"name": "KCNG1 WT (peptide)", "chain": "AVNLSVSTLPSLREEEEQVRAHAP"}}, "assay": "protein stability index of a GFP-peptide fusion (GPS, HEK-293T) (PSI 1-6); higher = more stable", "details": "c terminus: a fixed tail appended", "data": [{"protein": "B1", "values": [{"measurement": "protein stability index", "setting": "parent: IOH6638_68", "value": 3.09}]}, {"protein": "B2", "values": [{"measurement": "protein stability index", "setting": "parent: IOH7272_33", "value": 2.52}]}, {"protein": "B3", "values": [{"measurement": "protein stability index", "setting": "parent: IOH6801_33", "value": 3.31}]}, {"protein": "B4", "values": [{"measurement": "protein stability index", "setting": "parent: IOH7272_73", "value": 2.53}]}, {"protein": "B5", "values": [{"measurement": "protein stability index", "setting": "parent: IOH7272_38", "value": 2.1}]}, {"protein": "B6", "values": [{"measurement": "protein stability index", "setting": "parent: IOH6886_11", "value": 2.01}]}, {"protein": "B7", "values": [{"measurement": "protein stability index", "setting": "parent: IOH6638_67", "value": 2.96}]}, {"protein": "B8", "values": [{"measurement": "protein stability index", "setting": "parent: IOH6886_76", "value": 2.12}]}, {"protein": "B9", "values": [{"measurement": "protein stability index", "setting": "parent: IOH6456_93", "value": 3.35}]}, {"protein": "B10", "values": [{"measurement": "protein stability index", "setting": "parent: IOH6886_23", "value": 3.18}]}, {"protein": "B11", "values": [{"measurement": "protein stability index", "setting": "parent: IOH6461_40", "value": 2.13}]}, {"protein": "B12", "values": [{"measurement": "protein stability index", "setting": "parent: IOH6956_31", "value": 2.49}]}, {"protein": "B13", "values": [{"measurement": "protein stability index", "setting": "parent: IOH6638_43", "value": 2.13}]}, {"protein": "B14", "values": [{"measurement": "protein stability index", "setting": "parent: IOH6589_29", "value": 3.65}]}, {"protein": "B15", "values": [{"measurement": "protein stability index", "setting": "parent: IOH7272_9", "value": 4.34}]}, {"protein": "B16", "values": [{"measurement": "protein stability index", "setting": "parent: IOH7272_62", "value": 1.66}]}, {"protein": "B17", "values": [{"measurement": "protein stability index", "setting": "parent: IOH6488_25", "value": 2.18}]}, {"protein": "B18", "values": [{"measurement": "protein stability index", "setting": "parent: IOH6638_42", "value": 2.07}]}, {"protein": "B19", "values": [{"measurement": "protein stability index", "setting": "parent: IOH7272_1", "value": 3.04}]}, {"protein": "B20", "values": [{"measurement": "protein stability index", "setting": "parent: IOH6886_19", "value": 1.82}]}, {"protein": "B21", "values": [{"measurement": "protein stability index", "setting": "parent: IOH6801_14", "value": 2.28}]}, {"protein": "B22", "values": [{"measurement": "protein stability index", "setting": "parent: IOH6456_79", "value": 2.62}]}, {"protein": "B23", "values": [{"measurement": "protein stability index", "setting": "parent: IOH6638_40", "value": 1.93}]}, {"protein": "B24", "values": [{"measurement": "protein stability index", "setting": "parent: IOH6638_19", "value": 2.79}]}, {"protein": "B25", "values": [{"measurement": "protein stability index", "setting": "parent: IOH7272_61", "value": 3.29}]}, {"protein": "B26", "values": [{"measurement": "protein stability index", "setting": "parent: IOH6488_45", "value": 2.62}]}, {"protein": "B27", "values": [{"measurement": "protein stability index", "setting": "parent: IOH6461_41", "value": 5.01}]}]}
